The supplement of paper PMC9732359
± gives the uncertainty stated by the source.

Assay: protein stability index of a GFP-peptide fusion (yeast GPS) (PSI 1-4); higher = more stable; sorted into four equal gates, so the index is relative within each strain
Summary of the method: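 Peptides tiling yeast proteins in 17-residue segments were fused downstream of GFP, with Cherry expressed from the same plasmid. As a pooled library in yeast, mid-log cultures grown in leucine-free medium were sorted into four equal gates by GFP/Cherry fluorescence ratio. Gate plasmids were PCR-amplified and Illumina-sequenced, and barcodes linked reads to strains. Each peptide received a protein stability index equal to the sum of each gate's read frequency times its gate number.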

Sequence	protein stability index (doa10∆)	protein stability index (pdr5∆)	protein stability index (san1∆)	protein stability index (ubr1∆)
PLNKPLLTEELAKSGST [TAF14]	2.25 ± 0.068	2.24 ± 0.064	2.94 ± 0.072	2.39 ± 0.054
AVAVGNVEMEEDVLVNQ [RPL1A]	2.19 ± 0.091	2.17 ± 0.075	1.17 ± 0.11	2 ± 0.059
TGHPKGAAGAWMMNGAL [FAS2]	1.98 ± 0.069	1.5 ± 0.052	1.43 ± 0.12	1.66 ± 0.052
SYWQKSYFKNSVIVKFH [LIN1]	2.56 ± 0.041	2.62 ± 0.045	2.42 ± 0.06	2.35 ± 0.041
SRNFSTRDEETTKLAFL [SIR4]	3.04 ± 0.065	3.09 ± 0.055	3.03 ± 0.04	2.97 ± 0.038
LAFYQVTPEEDEEEDEE [RPL22A]	3.14 ± 0.1	3.45 ± 0.12	3.61 ± 0.06	3.38 ± 0.11
NERRKDLAERASELDES [SMC3]	2.13 ± 0.058	2.79 ± 0.06	1.98 ± 0.11	2.97 ± 0.054
AITADLGSSEAENLLQL [YGL172W/NUP49]	–	1.31 ± 0.21	–	–
EITGTSCLTFFQALDSE [ITC1]	2.46 ± 0.086	2.78 ± 0.099	2.42 ± 0.1	1.82 ± 0.057
FEEDSDLALPPPPPPPP [PRP8]	3.08 ± 0.063	3.25 ± 0.066	3.27 ± 0.072	3.23 ± 0.062
ENTKDNLVKEKEALQNN [SMC1]	3.51 ± 0.12	3.26 ± 0.13	3.45 ± 0.13	–
KIIDNPKSFLKKDQSVL [YMR129W/POM152]	3.06 ± 0.083	3.34 ± 0.098	3.07 ± 0.071	3.2 ± 0.095
GNIQISEYNFLEGSVSL [DIS3]	2.74 ± 0.097	3.08 ± 0.091	3.05 ± 0.09	2.89 ± 0.072
TLSHLRRTNTPIGRDGK [RPB2]	2.14 ± 0.043	2.26 ± 0.038	2.24 ± 0.057	2.08 ± 0.036
LLKKKDDPSKVRLLCRS [YLR335W/NUP2]	2.12 ± 0.047	1.85 ± 0.063	1.98 ± 0.089	2.61 ± 0.15
RGFGKINKQRVPLSDNA [RPL7A]	3.03 ± 0.091	3.5 ± 0.11	3.29 ± 0.094	2.91 ± 0.066
FASIPVSNSISRLGEEN [SNU114]	2.31 ± 0.058	2.63 ± 0.051	1.81 ± 0.081	2.48 ± 0.059
DLKPANIMVTIDGCVKI [SSN3]	2.58 ± 0.29	1.83 ± 0.16	–	1.69 ± 0.25
GILLETISVPQIRDVME [RRP6]	2.74 ± 0.072	2.56 ± 0.06	2.89 ± 0.056	2.64 ± 0.067
SYTAFSRLTLLLRALKT [PRP8]	1.27 ± 0.042	1.19 ± 0.037	1.24 ± 0.082	1.25 ± 0.035
QWMVSLFNNHLNGILAD [SNF2]	1.39 ± 0.12	1.46 ± 0.11	1.37 ± 0.14	1.2 ± 0.059
NLGRAVFWEIQSRVPTS [PRP8]	2.05 ± 0.1	2.22 ± 0.17	2.17 ± 0.092	2.4 ± 0.18
MFSPLVDSGSNDAMAGG [RPO21]	3.3 ± 0.16	–	3.37 ± 0.26	–
REAIRPGHEMEDFLDKS [AAR2]	3.23 ± 0.062	2.87 ± 0.056	3.24 ± 0.044	3.22 ± 0.036
KACKTADKLVNVTQNEQ [SRP68]	3.02 ± 0.13	3.04 ± 0.095	3 ± 0.073	3.07 ± 0.07
FKQIKSADCELLGIDAT [RPO31]	1.62 ± 0.083	1.8 ± 0.089	1.42 ± 0.16	2.08 ± 0.053
